Results on four molecules are retold here after US20090280138A1.

What all share (conditions): remark: other sources report otherwise
The target of experiment [1] is MHC class I molecule A*0101. As to the kind of experiment: iTopia iScore.
Experiment [2] has as its target MHC class I molecule A*0201. In words: iTopia iScore.
The target in experiment [3] is MHC class I molecule A*0301. As to the kind of experiment: iTopia iScore.
The target in experiment [4] is MHC class I molecule B*0702. In words: iTopia iScore.
Experiment [5] has as its target MHC class I molecule HLA-B*0702 (iTopia plate-bound monomer). As to the kind of experiment: iTopia off-rate assay, 37 C; fit R^2 0.09.
The target in experiment [6] is MHC class I molecule HLA-A*0201 (iTopia plate-bound monomer). In words: iTopia off-rate assay, 37 C; fit R^2 0.35.
Experiment [7] has as its target MHC class I molecule HLA-A*0301 (iTopia plate-bound monomer). In words: iTopia off-rate assay, 37 C; fit R^2 0.99.
Experiment [8] addresses MHC class I allele A*0101. In words: iTopia peptide binding assay.
The target in experiment [9] is MHC class I allele A*0201. In words: iTopia peptide binding assay.
The target in experiment [10] is MHC class I allele A*0301. As to the kind of experiment: iTopia peptide binding assay.
The target of experiment [11] is MHC class I allele B*0702. As to the kind of experiment: iTopia peptide binding assay.
The target of experiment [12] is MHC class I allele A*0201 monomer (human). In words: iTopia, multiparametric iScore.
Experiment [13] addresses MHC class I allele B*0702 monomer (human). As to the kind of experiment: iTopia, multiparametric iScore.
Experiment [14] concerns the target MHC class I molecule A*0301. In words: iTopia affinity assay (ED50), peptide titration on plate-bound MHC.
Experiment [15] has as its target MHC class I molecule B*0702. The description is as above.

RLARLALVL (here or on the partner: biotin (bound to streptavidin-coated plate)) [5T4 9-mer peptide 9 …]: the iScore came to 0 in experiment [1], 1.21 in experiment [2], 0.052 in [3] and 0.515 in [4]. Besides, the t½ half life in experiment [5] is 2 h; in experiment [6] it was 15.9 h; in experiment [7], 0.3 h.
For the molecule RLARLALVL (here or on the partner: bound via biotin to streptavidin-coated plate) [5T4 9 mer peptide 9 …], the % of positive control peptide binding in [8] amounted to 2%; in experiment [9], 65%; in experiment [10] it was 48%; in experiment [11], 84%.
With RLARLALVL (here or on the partner: biotinylated, bound to streptavidin-coated plate) [5T4 9-mer peptide 9], the results for the iScore in [12] and in experiment [13] were 1.21 and 0.515, respectively.
By EC50 is commonly meant the concentration that produces a half-maximal response. For RLARLALVL (here or on the partner: biotin (bound via biotin to streptavidin-coated plates)) [5T4 9 mer peptide 9 (…)], the EC50 in experiment [14] is 3000 nM; in experiment [15] it was 700 nM.
